Assay results: article PMC5029660, “The DEK oncogene activates VEGF expression and promotes tumor angiogenesis and growth in HIF-1α-dependent and -independent manners”

Key:
His-DEK [1] = target: T1, His-DEK (UniProt P35659 1-375); experiment: EMSA; LightShift Chemiluminescent EMSA Kit (Pierce), per manufacturer; buffer, salt, pH and temperature not stated; conditions: protein: recombinant; tags: His; label: biotin; blunt
T1 sequence: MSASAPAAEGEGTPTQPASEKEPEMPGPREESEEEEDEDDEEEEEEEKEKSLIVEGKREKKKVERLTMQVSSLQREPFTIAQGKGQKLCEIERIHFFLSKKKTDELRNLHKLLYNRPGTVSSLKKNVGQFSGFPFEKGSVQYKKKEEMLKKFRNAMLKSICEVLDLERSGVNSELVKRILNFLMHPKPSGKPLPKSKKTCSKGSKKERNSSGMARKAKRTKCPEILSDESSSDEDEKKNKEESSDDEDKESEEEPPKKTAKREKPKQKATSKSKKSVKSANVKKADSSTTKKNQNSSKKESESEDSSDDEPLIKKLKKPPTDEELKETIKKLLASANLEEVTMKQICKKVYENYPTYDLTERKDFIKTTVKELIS

His-DEK [2] = target: T1, His-DEK; experiment: EMSA; abolished by 100-fold excess unlabeled DRE1; LightShift Chemiluminescent EMSA Kit (Pierce), per manufacturer; buffer, salt, pH and temperature not stated; conditions: protein: recombinant; tags: His; label: biotin; blunt

B1: HRE (dsDNA)
DNA 1: ACAGTGCATACGTGGGCTCCAACAGGTCCTCTTCCCTCCC
DNA 2: GGGAGGGAAGAGGACCTGTTGGAGCCCACGTATGCACTGT
- binding result (His-DEK [1]): no binding

B2: DRE2 (dsDNA)
DNA 1: TGGAAAGGGAGGGTTGGGGTGGGTGGGAGCCAGCCCT
DNA 2: AGGGCTGGCTCCCACCCACCCCAACCCTCCCTTTCCA
- binding result (His-DEK [1]): no binding

B3: DRE1-M (dsDNA)
DNA 1: GGGTTGAGGGCGGGTTCTATTTGAGAAGGCCAGGGGT
DNA 2: ACCCCTGGCCTTCTCAAATAGAACCCGCCCTCAACCC
- binding result (His-DEK [1]): no binding

B4: DRE1 (dsDNA)
DNA 1: GGGTTGAGGGCGTTGGAGCGGGGAGAAGGCCAGGGGT
DNA 2: ACCCCTGGCCTTCTCCCCGCTCCAACGCCCTCAACCC
- binding result (His-DEK [2]): binds
